Measurements published in US20190343964A1 (SHIZUOKA PERFECTURE, published 2019).

T1: B7-H4 expressed on the membrane surface of cancer cells (human, UniProt Q7Z7D3 25-282)
T1 sequence (looked up): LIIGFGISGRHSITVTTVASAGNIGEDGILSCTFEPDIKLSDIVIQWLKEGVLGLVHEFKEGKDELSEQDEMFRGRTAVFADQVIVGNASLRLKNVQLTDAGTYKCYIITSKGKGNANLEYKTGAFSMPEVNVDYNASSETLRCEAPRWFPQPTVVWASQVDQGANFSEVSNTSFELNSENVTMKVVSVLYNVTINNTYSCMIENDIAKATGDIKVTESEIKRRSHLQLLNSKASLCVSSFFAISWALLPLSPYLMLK

T2: soluble human B7-H4 recombinant protein (human, UniProt Q7Z7D3 25-259)
T2 construct: also called a free form of B7-H4
T2 sequence: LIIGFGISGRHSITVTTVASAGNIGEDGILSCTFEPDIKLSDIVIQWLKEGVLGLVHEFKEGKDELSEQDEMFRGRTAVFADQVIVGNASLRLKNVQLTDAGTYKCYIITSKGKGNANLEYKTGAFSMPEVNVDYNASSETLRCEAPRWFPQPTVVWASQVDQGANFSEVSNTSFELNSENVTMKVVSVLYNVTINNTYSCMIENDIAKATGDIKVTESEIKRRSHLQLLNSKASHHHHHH

B1: Fab-scFv according to the present invention (bispecific antibody)
heavy: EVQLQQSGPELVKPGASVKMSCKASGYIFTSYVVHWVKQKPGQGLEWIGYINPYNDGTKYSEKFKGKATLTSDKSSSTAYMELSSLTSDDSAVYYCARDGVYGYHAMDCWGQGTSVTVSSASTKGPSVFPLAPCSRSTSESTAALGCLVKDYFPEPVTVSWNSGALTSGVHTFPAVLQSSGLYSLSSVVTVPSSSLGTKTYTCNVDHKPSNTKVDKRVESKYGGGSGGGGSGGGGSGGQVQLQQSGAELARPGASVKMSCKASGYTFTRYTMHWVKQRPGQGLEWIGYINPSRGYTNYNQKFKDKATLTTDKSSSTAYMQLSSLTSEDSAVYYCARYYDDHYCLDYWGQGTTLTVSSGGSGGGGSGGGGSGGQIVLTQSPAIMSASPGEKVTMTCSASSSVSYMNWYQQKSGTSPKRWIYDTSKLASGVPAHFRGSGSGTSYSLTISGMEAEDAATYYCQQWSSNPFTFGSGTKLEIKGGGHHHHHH
light: NIQMTQSPSSLAVSAGEKVTMSCKSSHAVLYSSNQKNYLAWYQQKPGQSPKLLIYWASTRDSGVPDRFTGGGSGTDFTLTITNIQPEDLAVYYCHQYLSSWTFGGGTKVEIKRTVAAPSVFIFPPSDEQLKSGTASVVCLLNNFYPREAKVQWKVDNALQSGNSQESVTGQDSKDSTYSLSSTLALSKADYEKHKVYACEVTHQGLSSPVTKSFNRGEC
B2: H4.051 (antibody, V domains shown)
VH: EVQLQQSGAELVRSGASVKLSCTASGFNIKDFYVHWVKQRPEQGLEWIGWIDPAHVDTEYAPKFQGKTTMTADTSSNTAYLQLSSLTSEDSAVYYCNALLPRTMDYWG
VL: DVVLTQTPLSLPVNVGDQASISCKSTKSLLNSDGFTYLDWYLQKPGQSPQLLIYLVSNRFSGVPDRFSGSGSGTDFTLKISRVEAEDLGVYYCFQSNYLPYTFG
notes: Mouse hybridoma monoclonal antibody; also called anti-B7-H4 monoclonal antibody produced from hybridoma clone #51
B3: H4.140 (antibody, V domains shown)
VH: EVQLVESGGDLVKPGGSLKLSCAASGFTFSTYGMSWVRQTPDKRLEWVATISSGGNYTYYPDSVKGRFTISRDNAKNTLYLQMSSLKSEDTAMYYCARPYGNHFDYWG
VL: DIQMTQSPASLAASVGETVTITCRASENIYYSLAWYQQKQGKSPQLLIYNANSLEDGVPSRFSGSGSGTQYSMKINSMQPEDTATYFCKQAYDVPYTFG
notes: Mouse hybridoma monoclonal antibody; also called anti-B7-H4 monoclonal antibody produced from hybridoma clone #140
B4: H4.018 (antibody)
chain 1: EVKLVESGGGLVKPGGSLKLSCAASGFTFSSYAMSWVRQTPEKRLEWVATISSGGNYTYYPDSVKGRFTISRDNAKNTLYLQMSSLRSEDTAMYYCARHRYDNNYDYYAMD
chain 2: NIQMTQSPSSLAVSAGEKVTMSCKSSHAVLYSSNQKNYLAWYQQKPGQSPKLLIYWASTRDSGVPDRFTGGGSGTDFTLTITNIQPEDLAVYYCHQYLSSWTFGGGTKVEIK
B5: H4.121 (antibody, V domains shown)
VH: QVQLQQSGAELMKPGASVKISCKATGYTFSSYWIEWVKQRPGHGLEWIGEILHGSDSTNYNENFKGKATFTADTSSNTAYMRLSSLTSEDSAVYYCASHYYGSSPFAYWG
VL: not shown
notes: Mouse hybridoma monoclonal antibody; also called anti-B7-H4 monoclonal antibody produced from hybridoma clone #121
B6: H4.209 (antibody, V domains shown)
VH: EVKLVESGGGLVKPGGSLKLSCAASGFTFSNYALSWVRQTPEKRLEWVASISGGGSTYYPDSVKGRFIISRDNARNILYLQMSSLRSEDTAMYYCARGPSYDDYYFDVWG
VL: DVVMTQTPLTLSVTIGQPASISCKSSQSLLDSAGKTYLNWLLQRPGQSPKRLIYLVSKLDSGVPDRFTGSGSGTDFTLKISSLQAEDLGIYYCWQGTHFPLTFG
notes: Mouse hybridoma monoclonal antibody; also called anti-B7-H4 monoclonal antibody produced from hybridoma clone #209

Molecular target: T1, B7-H4 expressed on the membrane surface …
Experiment: cell-based or functional assay

Row | Binder | 50% maximum effective concentration (EC50) of cytotoxicity (% Lysis) to MDA-MB-468 cells, LDH release, with human peripheral blood mononuclear cells, 16 hours [µg/mL]
1 | B1 | 0.013

Molecular target: T2, soluble human B7-H4 recombinant protein
Experiment: ELISA, hybridoma culture supernatant diluted 2 times on immobilized free form of B7-H4
Description: Specifically, the free form of B7-H4 was added to a 96 well Immobilizer Amino Plate (Thermo Fisher Scientific) and incubated at room temperature for 2 hours to immobilize the free form of B7-H4 on the plate surface. Simultaneously, wells with no immobilization of the free form of B7-H4 were prepared as negative control. After incubation, the antigen that was not immobilized was removed and the wells were filled with PBS containing 3% BSA and incubated at 4° C. overnight. In this step, nonspecific binding capacity to the plate surface was blocked to produce a plate for ELISA.
The culture supernatant of each of the plurality of hybridoma lines obtained in Example 2 was 2-times diluted with PBS containing 0.05% Tween20 to prepare a supernatant sample. The buffer was removed from the wells of the aforementioned plate for ELISA and then the supernatant sample was added and incubated at room temperature for 2 hours. The plate was washed to remove the unbound antibody and then a horseradish peroxidase (HRP) labeled anti-mouse immunoglobulin antibody (GE Healthcare) was added and incubated for 1 hour. The wells were washed, then a peroxidase substrate (BD Biosciences) was added and incubated for 30 minutes, and a sulfuric acid solution at a concentration of 0.1 M or higher was added to stop the color development. Whether an antibody that recognizes B7-H4 in a supernatant sample was contained was examined by measuring the absorption of the solution in each well at a wavelength of 450 nm.

Row | Binder | OD 450 nm [OD 450 nm]
2 | B2 | 1.96
3 | B3 | 1.06
4 | B4 | 1.96
5 | B5 | 2.02
6 | B6 | 1.93
